Data: patent US20240148841A1

Molecular target: human IgG (of human serum; IgG against AAV8 in AAV8 positive human serum pools CP16 and P1) (human)
Assay: cell-based or functional assay

B1: Xork1.3-Fc-HD-H435R (Fc fusion)
chain: MTLWADGVQVDDKDFKPSTENFGTNYLAAEYGIGKGYYDINKKFDGTDDDLCSGVVAANQLHWWLDRNKDYIEKYRQQSKDNGVTIGNTDIFELNKLHDEDQSNFFDFIKKSFGNKFLQPERLLNMYINGYGYLTSQDKAKTSQPSPSKLNFFQKVFKNNLLTDKTPINDIDEFSSQTKNALQNHKVLAVSFASIKNRGLGHVVTVWGADFDENGKVVALYVTDSDDRSKNIGNAKLGMKKLRIEVSAQDSSTIKLTGFEDKNSGGSLRHLYSLSTGEQIWKKYFEETEPKSSDKTHTCPPCPAPELLSSPSVFLFPPKPKDTLMISRTPEVTCVVVDVSHEDPEVKFNWYVDGVEVHNAKTKPREEQYNSTYRVVSVLTVLHQDWLNGKEYKCKVSNKALPAPIEKTISKAKGQPREPQVYTLPPSRDELTKNQVSLTCLVKGFYPSDIAVEWESNGQPENNYKTTPPVLDSDGSFFLYSKLTVDKSRWQQGNVFSCSVMHEALHNRYTQKSLSLSPG
**Q.** For B1, which SEAP levels in passively immunized mice (% lower than in non-immunized controls) is on record?
**A.** 20
